The numbers were not newly measured in patent US20260217837A1, “FGFR3 BINDING MOLECULES AND METHODS OF USE THEREOF” (Regeneron Pharmaceuticals, Inc., priority 2023, published 2026), which cites them from elsewhere.

Read-outs that look alike come from different tables or passages of the source.

In this series the test system is FGFR3.
Setting [1] is: Exemplary FGFR3 D3 binding sequences, antibodies of cited PCT publications.
[2] abbreviates: Table T-1, exemplary FGFR3 parental antibodies of cited publications.

B1: PRO-026: anti-FGFR3 IIIc antibody of WO 2006/048877 A2; SEQ ID NO: 36/37 (antibody, V domains shown)
VH: QVQLVQSGAEVKKPGASVKVSCKASGYTFTSYYMHWVRQAPGQGLEWMGWINPNSGGTNYAQKFQGRVTMTRDTSISTAYMELSSLRSEDTAVYYCARGYWYAYFTYINYGYFDNWGQGTLVTVSS
VL: DIALTQPASVSGSPGQSITISCTGTSSDVGGYNYVSWYQQHPGKAPKLMIYDVSNRPSGVSNRFSGSKSGNTASLTISGLQAEDEADYYCQSYDNNSDWFGGGTKLTVLGQ
For B1, the Activity entry under setting [1] is given as “Antagonistic” and the Activity result under setting [2] is reported as “Antagonistic”.

B2: 15D8: anti-FGFR3 Igl 3 antibody of WO 2010/002862 A2; SEQ ID NO: 51/52 (antibody, V domains shown)
VH: EIQLQQSGPELVKPGASVKVSCKASGYAFTSYNMYWVKQSHGKSLEWIGYIDPYNGGTSYNQKFKGKATLTVDKSSSTAYMHLNSLTSEDSAVYYCAREGGNYEAWFAYWGQGTLVTVSA
VL: QIVLTQSPALMSASPGEKVTMTCSASSSVSYMYWYQQKPRSSPKPWIYLTSYLASGVPARFSGSGSGTSYSLTISSMEAEDAATYYCQQWSSYPLTFGAGTKLELK
In the case of B2, the Activity result runs as follows: under setting [1], “Antagonistic”; under setting [2], “Antagonistic”.

B3: 27H2: anti-FGFR3 Igl 3 antibody of WO 2010/002862 A2; SEQ ID NO: 53/54 (antibody, V domains shown)
VH: EIQLQQSGPELVKPGASVKVSCKASGYAFTSYNMYWVKQSHGKSLEWIGYIDPYNGGTRYNQKFKGKATMTVDKSSSTAYMHLNSLTSEDSAVYYCAREGGNYEAWFAYWGQGTLVTVSA
VL: QIVLTQSPALMSASPGEKVTMTCSASSSVSYMYWYQQKPRSSPKPWIYLTSNLASGVPARFSGSGSGTSYSLTISSMEAEDAATYYCQQWSSNPLTFGAGTKLELK
B3: the Activity result is, setting by setting: under setting [1], “Antagonistic”; under setting [2], “Antagonistic”.

B4: 2G4: anti-FGFR3 Igl 3 antibody of WO 2010/002862 A2; SEQ ID NO: 55/54 (antibody, V domains shown)
VH: EIQLQQSGPELVKPGASVKVSCKASGYAFTSYNMYWVKQSHGKSLEWIGYIDPYNGGTRDNQKFKGKATLTVDKSSSTAYMHLNSLTSEDSAVYYCAREGGNYEAWFAYWGQGTLVTVSA
VL: QIVLTQSPALMSASPGEKVTMTCSASSSVSYMYWYQQKPRSSPKPWIYLTSNLASGVPARFSGSGSGTSYSLTISSMEAEDAATYYCQQWSSNPLTFGAGTKLELK
B4: the Activity result reads like this: under setting [1], “Antagonistic”; under setting [2], “Antagonistic”.

B5: 4E7(7D12): anti-FGFR3 Igl 3 antibody of WO 2010/002862 A2; SEQ ID NO: 56/54 (antibody, V domains shown)
VH: EIQLQQSGPELVKPGASVKVSCKASGYAFTSYNMYWVKQSHGKSLEWIGYIDPYNGGTRYNQKFKGKATLTVDKSSSTAYMHLNSLTSEDSAVYYCAREGGNYEAWFAYWGQGTLVTVSA
VL: QIVLTQSPALMSASPGEKVTMTCSASSSVSYMYWYQQKPRSSPKPWIYLTSNLASGVPARFSGSGSGTSYSLTISSMEAEDAATYYCQQWSSNPLTFGAGTKLELK
In the case of B5, the Activity entry by setting is: under setting [1], “Antagonistic”; under setting [2], “Antagonistic”.

B6: MS-Pro-55: anti-FGFR3 Ig-like domain 3 antibody of WO 2002/102972 A2; SEQ ID NO: 44/45 (antibody, V domains shown)
VH: QVQLVQSGAEVKKPGASVKVSCKASGYTFTSYYMHWVRQAPGQGLEWMGWINPNSGGTNYAQKFQGRVTMTRDTSISTAYMELSSLRSEDTAVYYCARSMNSTMYWYLRRVLFDHWGQGTLVTVSS
VL: DIALTQPASVSGSPGQSITISCTGTSSDVGGYNYVSWYQQHPGKAPKLMIYDVSNRPSGVSNRFSGSKSGNTASLTISGLQAEDEADYYCQSYDMYNYIVFGGGTKLTVLGQ
As to B6, the Activity entry is “Antagonistic” under setting [1] and “Antagonistic” under setting [2].

B7: PRO-055: anti-FGFR3 IIIc antibody of WO 2006/048877 A2; SEQ ID NO: 44/45 (antibody, V domains shown)
VH: QVQLVQSGAEVKKPGASVKVSCKASGYTFTSYYMHWVRQAPGQGLEWMGWINPNSGGTNYAQKFQGRVTMTRDTSISTAYMELSSLRSEDTAVYYCARSMNSTMYWYLRRVLFDHWGQGTLVTVSS
VL: DIALTQPASVSGSPGQSITISCTGTSSDVGGYNYVSWYQQHPGKAPKLMIYDVSNRPSGVSNRFSGSKSGNTASLTISGLQAEDEADYYCQSYDMYNYIVFGGGTKLTVLGQ
Turning to B7, the Activity result was “Antagonistic” under setting [1] and “Antagonistic” under setting [2].

B8: PRO-012: anti-FGFR3 antibody of WO 2006/048877 A2; SEQ ID NO: 47/27 (antibody, V domains shown)
VH: QVQLKESGPALVKPTQTLTLTCTFSGFSLSTSGVGVGWIRQPPGKALEWLALIDWDDDKYYSTSLKTRLTISKDTSKNQVVLTMTNMDPVDTATYYCARYHSWYEMGYYGSTVGYMFDYWGQGTLVTVSS
VL: DIELTQPPSVSVAPGQTARISCSGDALGDKYASWYQQKPGQAPVLVIYDDSDRPSGIPERFSGSNSGNTATLTISGTQAEDEADYYCQSYDFDFAVFGGGTKLTVLGQ
With B8, under setting [2], the Activity entry is listed as “Antagonistic”.

B9: MS-PRO-12: anti-FGFR3 Ig-like domain 2 antibody of WO 2002/102972 A2; SEQ ID NO: 26/27 (antibody, V domains shown)
VH: QVQLKESGPALVKPQTLTLTCTFSGFSLSTSGVGVGWIRQPPGKALEWLALIDWDDDKYYSTSLKTRLTISKDTSKNQVVLTMTNMDPVDTATYYCARYHSWYEMGYYGSTVGYMFDYWGQGTLVTVSS
VL: DIELTQPPSVSVAPGQTARISCSGDALGDKYASWYQQKPGQAPVLVIYDDSDRPSGIPERFSGSNSGNTATLTISGTQAEDEADYYCQSYDFDFAVFGGGTKLTVLGQ
For B9, under setting [2], the Activity entry is “Antagonistic”.

B10: PRO-029: anti-FGFR3 IIIc antibody of WO 2006/048877 A2; SEQ ID NO: 40/49 (antibody, V domains shown)
VH: QVQLVQSGAEVKKPGASVKVSCKASGYTFTSYYMHWVRQAPGQGLEWMGWINPNSGGTNYAQKFQGRVTMTRDTSISTAYMELSSLRSEDTAVYYCARTWQYSYFYYLDGGYYFDIWGQGTLVTVSS
VL: DIVLTQSPATLSLSPGERATLSCRASQSVSSSYLAWYQQKPGQAPRLLIYGASSRATGVPARFSGSGSGTDFTLTISSLEPEDFATYYCQQTNNAPVTFGQGTKVEIKRT
As for B10, the Activity result is, setting by setting: under setting [1], “Antagonistic”; under setting [2], “Antagonistic”.

B11: Hu15D8: anti-FGFR3 Igl 3 antibody of WO 2010/002862 A2; SEQ ID NO: 59/60 (antibody, V domains shown)
VH: EVQLVQSGAEVKKPGESLKISCKGSGYSFTSYNMYWVRQMPGKGLEWMGYIDPYNGGTSYNQKFKGKATLTVDKSISTAYLQWSSLKASDTAMYYCAREGGNYEAWFAYWGQGTLVTVSS
VL: DIQLTQSPSSLSASVGDRVTITCSASSSVSYMYWFQQKPGKAPKPLIYLTSYLASGVPSRFSGSGSGTDFTLTISSLQPEDFATYYCQQWSSYPLTFGGGTKVEIK
Take B11: the Activity entry reads like this: under setting [1], “Antagonistic”; under setting [2], “Antagonistic”.

B12: 20B4: anti-FGFR3 Igl 3 antibody of WO 2010/002862 A2; SEQ ID NO: 57/58 (antibody, V domains shown)
VH: EIQLQQSGPELVKPGASVKVSCKASGYSLTDYNMYWVKQSHGKSLEWIGYIDPYNGGTSYNQKFKGKATLTVDKSSSTAFMHLNSLTSEDSAVYYCARSLGPDFDYWGQGTTLTVSS
VL: QIVLTQSPAIMSASPGEKVTMTCSASSSVNYMHWYQQKSGTSPKRWIYDTSKLASGVPARFSGSGSGTSYSLTISSMEAEDTATYYCQQWNSNPLTFGAGTKLELK
For the molecule B12, the Activity result is “Antagonistic” under setting [1] and “Antagonistic” under setting [2].

B13: MS-Pro-54: anti-FGFR3 Ig-like domain 3 antibody of WO 2002/102972 A2; SEQ ID NO: 42/43 (antibody, V domains shown)
VH: QVQLVQSGAEVKKPGASVKVSCKASGYTFTSYYMHWVRQAPGQGLEWMGWINPNSGGTNYAQKFQGRVTMTRDTSISTAYMELSSLRSEDTAVYYCARNMAYTNYQYVNMPHFDYWGQGTLVTVSS
VL: DIELTQPPSVSVAPGQTARISCSGDALGDKYASWYQQKPGQAPVLVIYDDSDRPSGIPERFSGSNSGNTATLTISGTQAEDEADYCQSYDYFKLVFGGGTKLTVLGQ
Take B13: the Activity result under setting [1] is “Antagonistic” and the Activity result under setting [2] is “Antagonistic”.

B14: PRO-054: anti-FGFR3 IIIc antibody of WO 2006/048877 A2; SEQ ID NO: 42/50 (antibody, V domains shown)
VH: QVQLVQSGAEVKKPGASVKVSCKASGYTFTSYYMHWVRQAPGQGLEWMGWINPNSGGTNYAQKFQGRVTMTRDTSISTAYMELSSLRSEDTAVYYCARNMAYTNYQYVNMPHFDYWGQGTLVTVSS
VL: DIELTQPPSVSVAPGQTARISCSGDALGDKYASWYQQKPGQAPVLVIYDDSDRPSGIPERFSGSNSGNTATLTISGTQAEDEADYYCQSYDYFKLVFGGGTKLTVLGQ
In the case of B14, the Activity entry is listed as “Antagonistic” under setting [1] and “Antagonistic” under setting [2].

B15: PRO-001: anti-FGFR3 antibody of WO 2006/048877 A2; SEQ ID NO: 46/29 (antibody, V domains shown)
VH: QVQLQQSGPGLVKPSQTLSLTCAISGDSVSSNSAAWNWIRQSPGRGLEWLGRTYYRSKWYNDYAVSVKSRITINPDTSKNQFSLQLNSVTPEDTAVYYCARSYYPDFDYWGQGTLVTVSS
VL: DIELTQPPSVSVAPGQTARISCSGDALGDKYASWYQQKPGQAPVLVIYDDSDRPSGIPERFSGSNSGNTATLTISGTQAEDEADYYCQSYDGPDLWVFGGGTKLTVLGQ
As to B15, the Activity entry under setting [2] is listed as “Antagonistic”.

B16: PRO-002: anti-FGFR3 antibody of WO 2006/048877 A2; SEQ ID NO: 24/25 (antibody, V domains shown)
VH: QVQLVQSGAEVKKPGASVKVSCKASGYTFTSYYMHWVRQAPGQGLEWMGWINPNSGGTNYAQKFQGRVTMTRDTSISTAYMELSSLRSEDTAVYYCARDFLGYEFDYWGQGTLVTVSS
VL: DIELTQPPSVSVAPGQTARISCSGDALGDKYASWYQQKPGQAPVLVIYDDSDRPSGIPERFSGSNSGNTATLTISGTQAEDEADYYCQSYDYSADYVFGGGTKLTVLGQ
For the molecule B16, the Activity entry under setting [2] is given as “Antagonistic”.
